Data from the nanobody polyreactivity screen of Harvey et al. (2022).

Assay: yeast display, Sf9 membrane polyspecificity reagent, FACS + sequencing; frameworks hold sequencing errors
Procedure, shortened: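 Galactose-induced (36–48 hours) yeast carrying a synthetic nanobody display library were exposed to 10% biotinylated, detergent-solubilized Sf9 membrane reagent at 4 °C for 1 hour. FACS followed streptavidin microbead enrichment, using low and high (top ~1%) gates for expression (anti-HA) and reagent binding (streptavidin). Colony PCR, MiSeq 2 × 250 sequencing and CDR-length filtering followed. Labels for polyreactivity reflect the gate of origin.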

Row | Sequence | polyreactivity (PSR sort gate)
1 | QVQLVDSGGGLVQAGASLRLSCAASGSIFRFYAMGWYRQAPGKERELVAAITSRGSTNYADSVKGRFTISRDNAKNTVYLQMKSLKPEDTAVYYCAAELVYFVIYDYWGLGTQVTVSS | low polyreactivity
2 | QVQLVDSGGGLVQAGATLRLSGAASGRIFGCNAMGWYRQAPGKVRELVAAISNGGSTYYADSVKGRFTISRDNAKNTVYFQMNSLKPEDTAVYYCNAAARIGYARRFYYWGQGTQVTVSS | high polyreactivity
3 | QVQLVDSGGGLVQAGCSLRLSCAASGSTFVTNDMGWSRKAPGKERELVAAISSGTSTNYADSVKGRFTISRDNAKNTFYLQMNSLNPEDTAVYYCAADSLKRDDYWGQGTQVTVSS | low polyreactivity
4 | QVQLVDSGGGLVQAGGILRLICAASGSTFGFYAMGWYRQAPGKERELVAAITTGGSTNYADSVKGRFTISRDNAKNTVYLQMNSLKPEDTAVYYCNADVFWNPYYDYDFWGQGTQVTVSS | high polyreactivity
5 | QVQLVDSGGGLVQAGGILRLSCAASGFILSDNAMGWYRQGPGKERELVAAINSGGSTYYADSVKGRFTISRDNAMNTVYLQMNSLKPEDTAVYYCAADFSTWLRAYDYWGQGTQVTVSS | low polyreactivity
6 | QVQLVDSGGGLVQAGGILRLSCAASGNIIYQNALVWSRHAPGKERELVAAITGRGSSTYYADSVKGRFTSSRDNAKNTVYLQMNSLKPEDTAVYYCAADTTPYDGYYGHGYWGQGTQVTVSS | low polyreactivity
7 | QVQLVDSGGGLVQAGGILRLSCAASGSIFSSYAMGWYRQAPGKERELVAAITSGGSTYYADSVKGRFTISRDNAKITVYLQMNSLKREDTAVYYCAAYLSYFGYDYWGQGTQVTVSS | low polyreactivity
8 | QVQLVDSGGGLVQAGGILRLSCAASGSTFDVYAIGWYRQAPGKEWELVAAITWDGDRTYYADSVKGRFTISRDNAKNTVYLQMNSLKPEDTGVYYCNADEGGNYREDYWGQGTQVTVSS | low polyreactivity
9 | QVQLVDSGGGLVQAGGRLRLSCAASGITFYYNAMGWYRQAPGKERELVATISSRGGSTYYADSVKGRFTISRDNAKNTVYLQMNSLKPEDTEVYYCNAGRSRYRWSTTGYTQVRDDYWGQATQVTVSS | high polyreactivity
10 | QVQLVDSGGGLVQAGGRLRLSCAASGRTFSKYAMGWYRQAPGKERELVASITRSGGSTNYADTVKGRFTISRDNAKNTVYLQKNSLKPEDTAVYYCRRKLGRTHDTGFDYWGQGTQVTVSS | low polyreactivity
11 | QVQLVDSGGGLVQAGGRLRLSCAASGSTFGWYGMGWYIQAPGKERELVASINWRGSSTYYADSVKGRFTMSRDNAKNTVYLQMNSLKPEDTAVYYCATTRDWAYNYWGQGTQVTVSS | low polyreactivity
12 | QVQLVDSGGGLVQAGGRLRLSCAPSGSIIIDNAMGWYRQAPGKERELVAAISSSGGSTHYADSVKGRFTISRDNAKNTVYLQMNSLKPEDTAVYYCAAKRGWRGGYYWGQGTQVTVSS | high polyreactivity
13 | QVQLVDSGGGLVQAGGSHRLSCADSGTFVYNAMGWYRQAPGKEREFVAAITKSGTSTSYADSVKGRFTISRDNAKNTVYLQMNSLIPEATAVYYCNARRYWYRRAYSVGYDYWGQGTQVTVSA | high polyreactivity
14 | QVQLVDSGGGLVQAGGSLGLSCAASGSIFRNYAMGWYRQAPGKERELVAAISYRVGRTYYADSVKGRFTISRDNAKNSVYLQMNSLNPEDTAVYYCAADSRSPGHDYWGQGTQVTVSS | low polyreactivity
15 | QVQLVDSGGGLVQAGGSLPLSCAASGFSFVYYAMAWYREAPGKEREFVAAITERGGSTDYADSVKGRFTISRDNAKNTVYLQMNSLKPEDTAVYYCASRNAYVYGMDYWGQGTQVTVSS | low polyreactivity
16 | QVQLVDSGGGLVQAGGSLRITCAASVLTFRRNPMGWYRQAPGKARELLGTITSGGSTNYADTVKGRFTISRDNAKNTVYLQMNSLKPEDTAVYYCNSVHLRIMYYWGQGTQVTVSS | high polyreactivity
17 | QVQLVDSGGGLVQAGGSLRLICAASGFIFTDYAMGWYRQAPGKEREFFAAIDWSGGNTYYADSVKGRFTISRDNAKNTVYLQMKSLKPEDTAVYYCAASGSAREYDYWGQGTQVTVSS | low polyreactivity
18 | QVQLVDSGGGLVQAGGSLRLICAASGRSFYNYAMGRYSEAPGKERELVAAIAGSGGSTYYADSEKGRVTISRDNAKNTGYLQMNSLKPEDTAVDYCSTSGPQYYSRNFDDWGQGTQVTVSS | low polyreactivity
19 | QVQLVDSGGGLVQAGGSLRLISAASGLIFSWYDKGWYRQAPGKERELVAAITTDGDDTYYADSVKGRFTISRDNAKNTVYLQMNSLKPDDTAVYYCAADSELGIRYPDRDYDSWGLGTQVTVSS | low polyreactivity
20 | QVQLVDSGGGLVQAGGSLRLSCAASGFIFGKYAMGWYRPAPGKEREFVAAITGNGGSTYYADSVKGRFTISRDNAKNTVYLQMNSLKPEDTAVYYCAADASWELFAWAHYDYWGQGTQVTVSS | low polyreactivity
21 | QVQLVDSGGGLVQAGGSLRLSCAASGFIFHRYAMGWYRQAPGKERELVAAISSSGGSTYYADSVKGRFTISRDNAKNTVYLQMNSLKPEDTAVYYCAAYYHDGYEFNYWGQGTQLTVSS | high polyreactivity
22 | QVQLVDSGGGLVQAGGSLRLSCAASGFIFKGNAMGWSRQAPGKERELVAAISRSGGRTYYADSVKGRFTISRENAKNTVYLEMNSLKPEDTAVYYGATEGDSFSAYDYWVQGTQVTVSS | high polyreactivity

Row | Sequence | polyreactivity (PSR sort gate)
23 | QVQLVDSGGGLVQAGGSLRLSCAASGFIFKRYAMGWYRQAPGKERELVAAINGGGSSTYYADSVKGRFTISRDNAKNTVYLQMNSLKPDDTAVYYCAADTDSWWYYLYYGEGFDYWGQGTQVTVSS | high polyreactivity
24 | QVQLVDSGGGLVQAGGSLRLSCAASGFIFSWYAMGWYRQAPGKERELVAAINWSGGSTYYADSVKGRFTISRDNAKNTVYLQMNSLKPEDTAVYYCAAVTSGISKYDYWGQGTQVTVSS | high polyreactivity
25 | QVQLVDSGGGLVQAGGSLRLSCAASGFIIGYNAMGWYRQAPGKEREFVAAISYNGGSTRYADSVKGRFTISRDNAKNTVYLQMNSLKPEDTAVYYCAAQKARVYRGAWTRYEYWGQGTQVTVSS | high polyreactivity
26 | QVQLVDSGGGLVQAGGSLRLSCAASGFTFADNAMGWYRQAPGKEREFVAAITWTADSTYYADSVKGRFTISRDNAKNTVYVQMNSLKPEDTAVYYCAASYSTIWTLYYYWGQGTQVTVSS | low polyreactivity
27 | QVQLVDSGGGLVQAGGSLRLSCAASGFTIHYKAMGWYRQAPGKERELVATISKSAGITSYADSVKGRFTISRDNAKNTVYLQMNSLNPEDTAVYYCAADKSYRRVYYWGQGTQVTVSS | low polyreactivity
28 | QVQLVDSGGGLVQAGGSLRLSCAASGFTIVHNAMGWYRQAPGKERELVAAISSSGGRTYYADSVKGRFTISRDNAKNTVYLQMNSLKPEDTAVYYCNARGYRGYDYWGQGTQVTVSS | high polyreactivity
29 | QVQLVDSGGGLVQAGGSLRLSCAASGGTISQYAMGWYRQAPGKERELVARISRRGGSTSYADSVKGRFTISRDNAKNTVYLQMNSLKPEDTAVYYCNAVRFYGRWRWIMEYWGQGSQVTVSS | high polyreactivity
30 | QVQLVDSGGGLVQAGGSLRLSCAASGGTISSYAMGWYRQAPGKERELVADITRRGGSTYYADSVKGRFTISRDNAKNTVYLQMNSLKPEDTAVYYCAAEWFRQGHRGLDYWGQGTQVTVSS | high polyreactivity
31 | QVQLVDSGGGLVQAGGSLRLSCAASGIIFPVYAMGWYRQAPGKERELVAAITYSGDRTYYADSVKGRFTISRDNAKNTVYLQMNSLKPEDSAVYYCNARFGVWPYFYNEDDYWGQGTQVTVSS | low polyreactivity
32 | QVQLVDSGGGLVQAGGSLRLSCAASGIILVNNAMGWYRQAPGKEREFVAAIRYSAGSTYYADSVKGRFTISRDNAKTTVYLQMNSLKPEDTAVYYCNAVRYPTRGYYPYRYGYWGQGTQVNVSS | high polyreactivity
33 | QVQLVDSGGGLVQAGGSLRLSCAASGITFGRYAMGWYRQAPGKERELVATITVNGGRTYYADSVKGRFTISRDNAKNTVYLQMNSLKPEDTAVYYCAAESAVDFDYWGQGTQVTVSS | low polyreactivity
34 | QVQLVDSGGGLVQAGGSLRLSCAASGITFNLNVMGWYRQAPGKERELVAAISRSGGRTYYADSVKGRFTISRDNAKNTVYLQMNSLKPEDTAVYYCDALSDRSSVPGDYWGQGTQVTVSS | high polyreactivity
35 | QVQLVDSGGGLVQAGGSLRLSCAASGRIFELYAMGWNTQATGKDRELVAVITNGGSTYYADSVKGRFTISRDNAKNTVYLQLNSLKPEDTAVYYCNGRRGYNRVGGSYGYWGQGTQVTVSS | low polyreactivity
36 | QVQLVDSGGGLVQAGGSLRLSCAASGRIFGVNAMGWYRQAPGKERELVAAINFSGGGTYYADSVKGRFTISRDNAKNTVYLQMNSLKPEDTAVYYCAADGPDYKWYYELDYWGQGTQVTVSS | low polyreactivity
37 | QVQLVDSGGGLVQAGGSLRLSCAASGRIFSENAMVWYRQSRGKERELVAAITANGGDTYYADSVKGRFTISRDNAKNTVYLQMNSLKPEDTAVYYCAAETGGLGGDYWGQGTQVTVSS | low polyreactivity
38 | QVQLVDSGGGLVQAGGSLRLSCAASGRIFYQYAMGWYRQAPGKERELVAGISKRGGSTYYADSVKGRFTISRDNAKNTVYLQMNSLKPEDTAVYYCARGGYPGSAEYDYWGQATQVTVSS | high polyreactivity
39 | QVQLVDSGGGLVQAGGSLRLSCAASGRILSTYPMGWYRPAPGKERELVAAITRTSGSTYYADSVKGRFTISRDNAKNTVFLQMNSLKPEDTEVYYCAADTWLITWSGQYNSWGQGTQVTVSS | low polyreactivity
40 | QVQLVDSGGGLVQAGGSLRLSCAASGRTFDNYAMGWYRQAPGKERELVAAISSSGGRTYYADSVKGRFTISRDNAKNTVYLQMNSLKPEDTAVYYCAAVWPVYRTHPGMDYWGHGTQVTVSS | high polyreactivity
41 | QVQLVDSGGGLVQAGGSLRLSCAASGRTFDVYTMGWYRQAPGKERELVAAINGGGSTYYADSVKGRFTISRDNAKNTVYLQMNTLKPEDTAVYYCAAKLRAGRSSYYWGQGTQVTVSS | high polyreactivity
42 | QVQLVDSGGGLVQAGGSLRLSCAASGRTFGYNAMGCYRQATGKERELVAAISSSGGSTYYADSVKGRFTISRDYAKNTVYLQMNSLKPEDTAVYYCATQGYSWAHGSDFWGQGTQVTVSS | low polyreactivity
43 | QVQLVDSGGGLVQAGGSLRLSCAASGRTFGYYAMGWYRQAPGKERELVAAISWRGTSTYYADSVKGRFTISRDNAKNTVYLQMNSLKPEDTAVYYCAVGRTVAHRFIAGDYWGQGTQVTVSS | high polyreactivity
